Test [1] concerns the target full-length human EGFR S492R on NIH3T3 cells (human) (UniProt P00533). Description: FACS.
Test [2] addresses full-length human wild-type EGFR on NIH3T3 cells (human) (UniProt P00533). Description: FACS.
Test [3] addresses S492R-EGFR-ECD-Fc (human) (UniProt P00533). Description: ELISA.
The next test deals with WT-EGFR-ECD-Fc (human) (UniProt P00533). Description: ELISA.

pKd: −log10 of the molar value.

As for Panitumumab, the pKd in test [1] was 8.63; in test [2], 8.63; in test [3], 10.57; with WT-EGFR-ECD-Fc (human) it was 10.68.

Values taken from paper PMC9338999.
